# Experimental data from patent US20100292443A1 (published 2010).
# Target: T1, protein A (immobilized on a protein A column) (UniProt P38507 37-327)
# T1 construct: Other paragraphs mention recombinant protein A on agarose and ProSep-vA-Ultra resin; also called protein A resin
# Assay: protein A column equilibrated with 20 mM TRIS pH 8, after papain digestion
# Experimental: Purified, intact anti-S1P IgG was digested with activated papain (incubated 10 mg/ml papain in 5.5 mM cysteine-HCL, 1 mM EDTA, 70 μM 2-mercaptoethanol for 0.5 hours at 37° C.) in digestion buffer (100:1 LT1009:papain in 50 mM sodium phosphate pH 7.2, 2 mM EDTA). After 2 hours at 37° C., the protease reaction was quenched with 50 mM iodoacetamide, dialyzed against 20 mM TRIS pH 9, and loaded onto 2×5 ml HiTrap Q columns. The bound protein was eluted with a linear gradient of 20 mM TRIS pH 8, 0.5 M NaCl and collected in 4 ml fractions. The fractions containing the anti-S1P Fab fragment were pooled and loaded onto a protein A column equilibrated with 20 mM TRIS pH 8. The intact antibody and the Fc fragment bound to the resin, while the Fab fragment was present in the flow through fraction. The Fab fragment was concentrated using a centricon-YM30 centrifugal concentrator (Millipore, Cat No 4209), dialyzed against 25 mM HEPES pH 7, and stored at 4° C.
binder,measurement,value
"LT1009 Fab fragment (anti-S1P Fab fragment, from papain digestion) (Fab) heavy: EVQLVQSGAEVKKPGESLKISCQSFGYIFIDHTIHWMRQMPGQGLEWMGAISPRHDITKYNEMFRGQVTISADKSSSTAYLQWSSLKASDTAMYFCARGGFYGSTIWFDFWGQGTMVTVSSASTKGPSVFPLAPSSKSTSGGTAALGCLVKDYFPEPVTVSWNSGALTSGVHTFPAVLQSSGLYSLSSVVTVPSSSLGTQTYICNVNHKPSNTKVDKRVEPKSCDKTH light: ETTVTQSPSFLSASVGDRVTITCITTTDIDDDMNWFQQEPGKAPKLLISEGNILRPGVPSRFSSSGYGTDFTLTISKLQPEDFATYYCLQSDNLPFTFGQGTKLEIKRTVAAPSVFIFPPSDEQLKSGTASVVCLLNNFYPREAKVQWKVDNALQSGNSQESVTEQDSKDSTYSLSSTLTLSKADYEKHKVYACEVTHQGLSSPVTKSFNRGEC",binding result,no binding
